First the molecules themselves.
B1: hu98L2H1 (antibody, human IgG1, kappa, V domains shown)
VH: EVQLVESGGGLVQPGGSLRLSCAASGFTFSDYGIHWVRQAPGKGLEWVAYISSGGYTIYYADTVKGRFTISRDNAKNSLYLQMNSLRAEDTAVYYCARGDYDDIFYTMDYWGQGTTVTVSS
VL: DIQMTQSPSSLSASVGDRVTITCRASRDITKFLNWYQQKPGKAVKLLIYYTSRLHSGVPSRFSGSGSGTDYTLTISSLQPEDFATYYCQQGNTLPWTFGGGTKVEIKR
B2: hu98L3H2 (antibody, human IgG1, kappa, V domains shown)
VH: B1 VH with D102E
VL: B1 VL with K42G
B3: hu98L3H5 (antibody, human IgG1, kappa, V domains shown)
VH: B1 VH with I34M, I58S, D102E
VL: B1 VL with K42G
B4: hu98L3H4 (antibody, human IgG1, kappa, V domains shown)
VH: B1 VH with I58S, D102E
VL: B1 VL with K42G
B5: hu98L3H1 (antibody, human IgG1, kappa, V domains shown)
VH: B1 VH
VL: B1 VL with K42G
B6: hu110L1H2 (antibody, human IgG1, kappa, V domains shown)
VH: EVQLVQSGAEVKKPGASVKVSCKTSGYTFTDYYMNWVRQAPGQSLEWMGIINPYNGGTSYTQKFKGRVTITVDKSASTAYMELSSLRSEDTAVYYCARHFYDSSYLTYSTMDYWGQGTTVTVSS
VL: DIVMTQSPDSLAVSLGERATINCKASENVGIFVSWYQQKPGQSPKLLIYGASNRYTGVPDRFSGSGSATDFTLTISSLQAEDVAVYYCGQSHSYPLTFGQGTKLEIKR
B7: hu110L2H2 (antibody, human IgG1, kappa, V domains shown)
VH: B6 VH
VL: B6 VL with D1N, D9K, V85D
B8: hu110L1H1 (antibody, human IgG1, kappa, V domains shown)
VH: B6 VH with T24A, S44R
VL: B6 VL
B9: hu110L1H5 (antibody, human IgG1, kappa, V domains shown)
VH: B6 VH with N55T
VL: B6 VL
B10: hu110L1H4 (antibody, human IgG1, kappa, V domains shown)
VH: B6 VH with N55S
VL: B6 VL
B11: hu110L1H3 (antibody, human IgG1, kappa, V domains shown)
VH: B6 VH with N55Q
VL: B6 VL
B12: hu110L2H5 (antibody, human IgG1, kappa, V domains shown)
VH: B6 VH with N55T
VL: B6 VL with D1N, D9K, V85D
B13: hu110L2H6 (antibody, human IgG1, kappa, V domains shown)
VH: B6 VH with G56V
VL: B6 VL with D1N, D9K, V85D
B14: hu110L2H4 (antibody, human IgG1, kappa, V domains shown)
VH: B6 VH with N55S
VL: B6 VL with D1N, D9K, V85D
B15: hu110L2H1 (antibody, human IgG1, kappa, V domains shown)
VH: B6 VH with T24A, S44R
VL: B6 VL with D1N, D9K, V85D
B16: hu110L2H3 (antibody, human IgG1, kappa, V domains shown)
VH: B6 VH with N55Q
VL: B6 VL with D1N, D9K, V85D
B17: hu110L1H6 (antibody, human IgG1, kappa, V domains shown)
VH: B6 VH with G56V
VL: B6 VL
B18: PL-1 (bispecific antibody)
chain 1: not shown
chain 2: DIVLTQSPASLAVSPGQRATITCRASESVSIHGTHLMHWYQQKPGQPPKLLIYAASKLESGVPARFSGSGSGTDFTLTINPVEAEDTANYYCQQSFEDPLTFGQGTKLEIKGGGGSGIPPKIECLPIDISIDEGKVLTVASAFTGEPTPEVTWSTGGRKIHSQEQGRFHIENTDDLTTLIIKDVQKQDGGLYTLTLRNEFGSDSATVNIHIRSI
chain 3: not shown
chain 4: not shown
B19: PL-3 (bispecific antibody)
chain 1: not shown
chain 2: B18 chain 2 with V136C, L176S, I180T
chain 3: not shown
chain 4: not shown
B20: PL-2 (bispecific antibody)
chain 1: not shown
chain 2: B18 chain 2 with L176S, I180T
chain 3: not shown
chain 4: not shown

Experimental findings from patent US20250376519A1 (JIANGSU HENGRUI PHARMACEUTICALS, published 2025) are described below.

Substitutions are numbered along the chain they refer to.

T4 sequence (P16410 36-162 limits assumed): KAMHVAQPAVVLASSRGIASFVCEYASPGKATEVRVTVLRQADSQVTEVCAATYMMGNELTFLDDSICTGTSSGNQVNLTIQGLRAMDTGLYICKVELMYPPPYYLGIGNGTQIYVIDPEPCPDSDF

The first experiment has as its target T1, human DLL3 on cells (human, UniProt Q9NYJ7 27-618).
T1 construct: Endogenous on H1184 and SHP77; Cell line is named under assay; also called H1184; DLL3/H82
T1 sequence: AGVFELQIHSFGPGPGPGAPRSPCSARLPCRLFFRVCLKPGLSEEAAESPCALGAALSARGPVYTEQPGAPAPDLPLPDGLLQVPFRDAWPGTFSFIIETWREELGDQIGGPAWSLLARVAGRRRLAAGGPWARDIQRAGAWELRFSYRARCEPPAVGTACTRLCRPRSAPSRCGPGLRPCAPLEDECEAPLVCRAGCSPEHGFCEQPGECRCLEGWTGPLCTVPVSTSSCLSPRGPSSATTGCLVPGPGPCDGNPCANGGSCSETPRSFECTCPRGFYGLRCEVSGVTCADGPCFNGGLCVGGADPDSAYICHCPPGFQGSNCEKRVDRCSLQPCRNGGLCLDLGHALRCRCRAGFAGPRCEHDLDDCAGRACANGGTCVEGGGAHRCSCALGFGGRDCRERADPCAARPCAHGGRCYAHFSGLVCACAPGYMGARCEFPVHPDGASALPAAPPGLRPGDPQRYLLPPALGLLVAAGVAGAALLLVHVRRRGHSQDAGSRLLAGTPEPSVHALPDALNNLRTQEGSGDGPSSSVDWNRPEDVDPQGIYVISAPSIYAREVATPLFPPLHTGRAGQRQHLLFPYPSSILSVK
As to the kind of experiment: flow cytometry, H1184 cells. The procedure:
(§1) The plates were centrifuged at 300 g for 5 min, and the supernatant was removed. Different concentrations of test antibodies were added at 100 μL/well. The plates were incubated in the dark in a refrigerator at 4° C. for 1 h. After 3 centrifugal washes at 300 g, working concentrations of APC anti-human IgG Fc (BioLegend, 410712) or PE F(ab′)2-goat anti-human IgG (invitrogen, H10104) were added. The plates were incubated in the dark in a refrigerator at 4° C. for 40 min. After 3 centrifugal washes at 300 g, the geometric mean fluorescence intensity was measured on an Invitrogen flow cytometer, and the EC50 values for the binding of the antibodies to DLL3-expressing cells were calculated.
For orientation: Flow cytometry measures light scatter and fluorescence of single cells or particles in a stream.
As to B1, the Emax is 2470.

Consider B2, for which the Emax worked out at 2350.

On to B3, for which the Emax is 1540.

Take B4: the Emax was found to be 1600.

In turn, B5 showed an Emax of 2440.

In another experiment the target is T1, human DLL3 on cells. Put plainly: flow cytometry, DLL3/H82 cells. The procedure: as §1
In the case of B6, the EC50 (commonly the concentration that produces a half-maximal response) amounted to 1.31 nM and the Emax was 4700.

Molecule B7 showed an EC50 of 1.25 nM and an Emax of 4750.

B8 came in with an EC50 of 1.15 nM and an Emax of 4470.

As for B9, the EC50 came out at 1.61 nM and the Emax was determined as 4610.

B10: a half-maximal response (EC50) required 1.51 nM and the Emax was found to be 4580.

In the case of B11, a half-maximal effect (EC50) was put at 1.15 nM and the Emax is 4560.

As for B12, a half-maximal effect (EC50) was put at 1.71 nM and the Emax came out at 4670.

B13 came in with an EC50 of 1.4 nM and an Emax of 5190.

B14 had an EC50 of 1.41 nM and an Emax of 4600.

On to B15, for which the EC50 turned out to be 1.25 nM and the Emax worked out at 4720.

The molecule B16 came in with an EC50 of 1.32 nM and an Emax of 4570.

Take B17: a half-maximal effect (EC50) was put at 1.66 nM and the Emax came to 4620.

The target of the next experiment is T2, human DLL3 (ACRO, DLL3-H52H4) (human, UniProt Q9NYJ7 27-492).
T2 construct: Bought
T2 sequence: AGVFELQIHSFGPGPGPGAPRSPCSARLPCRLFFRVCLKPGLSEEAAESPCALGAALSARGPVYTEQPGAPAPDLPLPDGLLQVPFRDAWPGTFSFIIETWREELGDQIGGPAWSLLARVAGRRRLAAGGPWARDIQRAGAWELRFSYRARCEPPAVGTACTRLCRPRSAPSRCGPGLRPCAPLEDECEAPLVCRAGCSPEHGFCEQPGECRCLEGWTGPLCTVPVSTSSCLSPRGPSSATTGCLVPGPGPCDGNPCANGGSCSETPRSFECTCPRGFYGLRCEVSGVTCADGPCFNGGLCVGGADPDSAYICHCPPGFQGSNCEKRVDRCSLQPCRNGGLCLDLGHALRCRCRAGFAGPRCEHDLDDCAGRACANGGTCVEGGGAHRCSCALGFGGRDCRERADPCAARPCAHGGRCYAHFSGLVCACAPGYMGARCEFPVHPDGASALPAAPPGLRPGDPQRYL
Put plainly: SPR Biacore 8K, Ab captured on Protein A. Summed up: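 Antibodies captured on a Protein A chip for 18 s; DLL3 or CD3D&3E antigen flowed 180 s, then 600 s dissociation, with real-time detection. Regeneration used 10 mM glycine-HCl pH 1.5 between cycles. Kinetics were obtained by 1:1 model fitting.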
(In SPR one partner is held on a chip, and binding of the other changes the refractive index at the surface.)
As to B6, binding was put at a Kd of 0.0819 nM, the koff (usually the rate constant with which the complex falls apart) was found to be 4.26e-05 s⁻¹ and the kon (commonly a measure of how fast the partners come together) was determined as 520000 M⁻¹ s⁻¹.

With B7, the affinity, expressed as Kd, was 0.12 nM; the koff was determined as 6.25e-05 s⁻¹; the kon is 521000 M⁻¹ s⁻¹.

For the molecule B8, the Kd (as a rule, a measure of binding affinity in units of concentration) was 0.068 nM; the koff stood at 4.17e-05 s⁻¹; the kon was 614000 M⁻¹ s⁻¹.

B9: binding was characterised by a dissociation constant (Kd) of 0.141 nM, the koff was found to be 6.41e-05 s⁻¹ and the kon is 454000 M⁻¹ s⁻¹.

Molecule B10 came in with a Kd of 0.0911 nM, a koff of 4.8e-05 s⁻¹ and a kon of 527000 M⁻¹ s⁻¹.

On to B11, for which the affinity, expressed as Kd, was 0.0843 nM; the koff stood at 4.75e-05 s⁻¹; the kon came to 564000 M⁻¹ s⁻¹.

B12 came in with a dissociation constant Kd of 0.206 nM, a koff of 8.96e-05 s⁻¹ and a kon of 434000 M⁻¹ s⁻¹.

On to B13, for which the Kd was 0.167 nM, the koff was found to be 6.86e-05 s⁻¹ and the kon is 411000 M⁻¹ s⁻¹.

As to B14, binding was put at a Kd of 0.103 nM, the koff is 5.11e-05 s⁻¹ and the kon is 496000 M⁻¹ s⁻¹.

Molecule B15 yielded a Kd of 0.115 nM, a koff of 5.84e-05 s⁻¹ and a kon of 509000 M⁻¹ s⁻¹.

Molecule B16 had a Kd of 0.117 nM, a koff of 6.45e-05 s⁻¹ and a kon of 550000 M⁻¹ s⁻¹.

Take B17: binding was characterised by a dissociation constant (Kd) of 0.102 nM, the koff amounted to 5.32e-05 s⁻¹ and the kon is 520000 M⁻¹ s⁻¹.

On to B1, for which the affinity, expressed as Kd, was 0.269 nM; the koff was 0.000389 s⁻¹; the kon worked out at 1.45e+06 M⁻¹ s⁻¹.

With B2, the Kd came to 0.464 nM, the koff was 0.000732 s⁻¹ and the kon was 1.58e+06 M⁻¹ s⁻¹.

In turn, B3 had a Kd of 1.22 nM, a koff of 0.00173 s⁻¹ and a kon of 1.42e+06 M⁻¹ s⁻¹.

With B4, binding was characterised by a dissociation constant (Kd) of 1.11 nM, the koff turned out to be 0.00151 s⁻¹ and the kon worked out at 1.36e+06 M⁻¹ s⁻¹.

Consider B5, for which the Kd is 0.232 nM, the dissociation rate constant (koff) amounted to 0.000372 s⁻¹ and the kon turned out to be 1.6e+06 M⁻¹ s⁻¹.

Another experiment deals with T3, hPDL1 (human, UniProt Q9NZQ7 19-239).
T3 construct: bought
T3 sequence (Q9NZQ7 19-239 limits assumed): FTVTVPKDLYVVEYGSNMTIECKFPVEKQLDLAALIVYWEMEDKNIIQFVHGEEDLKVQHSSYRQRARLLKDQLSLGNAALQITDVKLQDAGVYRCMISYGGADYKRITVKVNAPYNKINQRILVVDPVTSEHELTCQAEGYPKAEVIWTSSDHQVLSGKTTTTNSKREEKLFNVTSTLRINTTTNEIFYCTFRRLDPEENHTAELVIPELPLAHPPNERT
Put plainly: ELISA.
For B18, the EC50 was determined as 1.6 nM.

B19 displayed an EC50 of 0.6 nM.

B20 came in with an EC50 of 0.5 nM.

The next experiment concerns the target T4, hCTLA4 (human, UniProt P16410 36-162, limits assumed).
T4 construct: bought
Put plainly: ELISA. On the technique in general: An ELISA detects its analyte on a solid surface through an enzyme-linked reagent.
Regarding B18, the EC50 was 16.5 nM.

B19 gave an EC50 of 7.9 nM.

The molecule B20 yielded an EC50 of 8 nM.
